Measurements as given in US20170313764A1 (ACADEMISCH MEDISCH CENTRUM, published 2017).

Legend:
[1] = target: E1E2 of HCV isolate H77 (genotype 1a), wild type (Hepatitis C virus genotype 1a, strain …, UniProt P27958 192-383; P27958 384-746); assay: cell-based or functional assay
[2] = target: E1E2 of HCV isolate AMS.1b.20877857 (genotype 1b) (Hepatitis C virus genotype 1b); assay: cell-based or functional assay
[3] = target: E1E2 of HCV isolate AMS.2b.20876551.kloon21 (genotype 2b) (Hepatitis C virus genotype 2b); assay: cell-based or functional assay
[4] = target: E1E2 of HCV isolate AMS.3a.21071213 (genotype 3a) (Hepatitis C virus genotype 3a); assay: cell-based or functional assay
[5] = target: E1E2 of HCV isolate UKN4.11.1 (genotype 4) (Hepatitis C virus genotype 4); assay: cell-based or functional assay
[6] = target: E1E2 of HCV isolate AMS.4d.20875969 (genotype 4d) (Hepatitis C virus genotype 4d); assay: cell-based or functional assay
[7] = target: E1E2 of HCV isolate H77 with single mutation N415A (Hepatitis C virus genotype 1a, strain …, UniProt P27958 192-383; P27958 384-746); assay: ELISA, GNA-captured E1E2 lysate; EC50 wild type / EC50 mutant
[8] = target: E1E2 of HCV isolate H77 with single mutation S424A (Hepatitis C virus genotype 1a, strain …, UniProt P27958 192-383; P27958 384-746); assay: as above
[9] = target: E1E2 of HCV isolate H77 with single mutation T435A (Hepatitis C virus genotype 1a, strain …, UniProt P27958 192-383; P27958 384-746); assay: as above
[10] = target: E1E2 of HCV isolate H77 with single mutation G436A (Hepatitis C virus genotype 1a, strain …, UniProt P27958 192-383; P27958 384-746); assay: as above
[11] = target: E1E2 of HCV isolate H77 with single mutation A439G (Hepatitis C virus genotype 1a, strain …, UniProt P27958 192-383; P27958 384-746); assay: as above
[12] = target: E1E2 of HCV isolate H77 with single mutation Y443A (Hepatitis C virus genotype 1a, strain …, UniProt P27958 192-383; P27958 384-746); assay: as above
[13] = target: E1E2 of HCV isolate H77 with single mutation Y485A (Hepatitis C virus genotype 1a, strain …, UniProt P27958 192-383; P27958 384-746); assay: as above
[14] = target: E1E2 of HCV isolate H77 with single mutation T526A (Hepatitis C virus genotype 1a, strain …, UniProt P27958 192-383; P27958 384-746); assay: as above
[15] = target: E1E2 of HCV isolate H77 with single mutation Y527A (Hepatitis C virus genotype 1a, strain …, UniProt P27958 192-383; P27958 384-746); assay: as above
[16] = target: E1E2 of HCV isolate H77 with single mutation W529A (Hepatitis C virus genotype 1a, strain …, UniProt P27958 192-383; P27958 384-746); assay: as above
[17] = target: E1E2 of HCV isolate H77 with single mutation G530A (Hepatitis C virus genotype 1a, strain …, UniProt P27958 192-383; P27958 384-746); assay: as above
[18] = target: E1E2 of HCV isolate H77 with single mutation D535A (Hepatitis C virus genotype 1a, strain …, UniProt P27958 192-383; P27958 384-746); assay: as above
[19] = target: E1E2 of HCV isolate H77 with single mutation W616A (Hepatitis C virus genotype 1a, strain …, UniProt P27958 192-383; P27958 384-746); assay: as above
[20] = target: E1E2 of HCV isolate H77 with single mutation R657A (Hepatitis C virus genotype 1a, strain …, UniProt P27958 192-383; P27958 384-746); assay: as above
[21] = target: E1E2 of HCV isolate H77 with single mutation D698A (Hepatitis C virus genotype 1a, strain …, UniProt P27958 192-383; P27958 384-746); assay: as above
[22] = target: E1E2 of HCV isolate H77 with single mutation L413A (Hepatitis C virus genotype 1a, strain …, UniProt P27958 192-383; P27958 384-746); assay: as above
[23] = target: E1E2 of HCV isolate H77 with single mutation G418A (Hepatitis C virus genotype 1a, strain …, UniProt P27958 192-383; P27958 384-746); assay: as above
[24] = target: E1E2 of HCV isolate H77 with single mutation W420A (Hepatitis C virus genotype 1a, strain …, UniProt P27958 192-383; P27958 384-746); assay: as above
[25] = target: T1, soluble E2-his6-sortase tag from HCV isolate H77 (genotype 1a) (Hepatitis C virus genotype 1a, strain …, UniProt P27958 384-717); assay: SPR (IBIS MX96), antibody spotted on chip, soluble E2-his as analyte
T1 construct: also called E2-his6-ST; E2 genotype 1a

[26] = target: T2, soluble E2-his6-sortase tag from HCV isolate AMS.2b.20876551.kloon21 (genotype 2b) (Hepatitis C virus genotype 2b); assay: as above
T2 chain: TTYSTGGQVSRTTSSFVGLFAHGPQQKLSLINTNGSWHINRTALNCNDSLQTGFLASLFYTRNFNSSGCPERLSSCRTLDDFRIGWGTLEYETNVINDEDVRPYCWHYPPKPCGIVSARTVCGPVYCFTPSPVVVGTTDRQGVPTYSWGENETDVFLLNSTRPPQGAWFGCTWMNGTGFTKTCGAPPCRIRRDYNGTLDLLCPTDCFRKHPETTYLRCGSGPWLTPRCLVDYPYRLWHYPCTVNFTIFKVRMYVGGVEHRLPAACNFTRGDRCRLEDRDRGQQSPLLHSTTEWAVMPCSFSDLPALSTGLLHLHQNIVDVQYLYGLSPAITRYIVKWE

[27] = target: T3, HCV E1E2 protein in transfected 293T cells (CD81 competition assay; isolate not stated); assay: flow cytometry competition: E1E2-transfected 293T cells pre-incubated with antibody, then CD81-LEL (mouse Fc) added and detected; blocked ligand CD81-LEL
T3 construct: also called E1E2 transfected cells

B1: AT13-021 (antibody, V domains shown)
VH: QVQLVQSGAEVKKPGSSVKVSCKASGGTFNTHAFSWVRQAPGEGLEWMGGISPMSGTPNYAQKFQGRLTITADESTSTGYMELRSLTSEDTAVYYCARELIGYCTGGNCYSFGDFWGQGTLITVSS
VL: EIVMTQSPATLSVSPGERATLSCRASQSVSSHLAWYQHKPGQAPRLLISGASTRAVGVPARFSGSGSGTEFTLTISSLQSEDFAVYYCHQYNTWPRGFGQGTKVDFKR
IC50, HCVpp neutralization [1]: 0.3 µg/mL
IC90, HCVpp neutralization [1]: 9.98 µg/mL
IC50, HCVpp neutralization [2]: 0.09 µg/mL
IC90, HCVpp neutralization [2]: 5.67 µg/mL
IC50, HCVpp neutralization [3]: 0.12 µg/mL
IC90, HCVpp neutralization [3]: 8.84 µg/mL
IC50, HCVpp neutralization [4]: 0.25 µg/mL
IC90, HCVpp neutralization [4]: 12.3 µg/mL
IC50, HCVpp neutralization [5]: 0.94 µg/mL
IC90, HCVpp neutralization [5]: 13.9 µg/mL
IC50, HCVpp neutralization [6]: 0.94 µg/mL
IC90, HCVpp neutralization [6]: > 50 µg/mL
relative binding, mutant vs wild type [7]: 119%
relative binding, mutant vs wild type [8]: 17%
relative binding, mutant vs wild type [9]: 21%
relative binding, mutant vs wild type [10]: < 10%
relative binding, mutant vs wild type [11]: 53%
relative binding, mutant vs wild type [12]: 87%
relative binding, mutant vs wild type [13]: 114%
relative binding, mutant vs wild type [14]: 27%
relative binding, mutant vs wild type [15]: 21%
relative binding, mutant vs wild type [16]: 13%
relative binding, mutant vs wild type [17]: < 10%
relative binding, mutant vs wild type [18]: < 10%
relative binding, mutant vs wild type [19]: < 10%
relative binding, mutant vs wild type [20]: 88%
relative binding, mutant vs wild type [21]: 80%
relative binding, mutant vs wild type [22]: 185%
relative binding, mutant vs wild type [23]: 131%
relative binding, mutant vs wild type [24]: 103%
Kd [25]: 14.2 nM
koff [25]: 0.00036 s⁻¹
Kd [26]: 2 nM
koff [26]: 0.0001 s⁻¹

B2: AT12-011 (antibody, V domains shown)
VH: QVQLVQSGAEVKKPGSSVKVSCKASGGTFSGYGITWVRQAPGQGLEWMGTIIPVSATETYAQRLQGRVTISADEHSTTSYMEVSSLKSEDTALYYCARHDYFWGTPLDIWGQGTMVIVSS
VL: EIVLTQSPDFQSVTPKEKVTITCRASQSIGSNLHWYQQKPGQSPKLLIKYASQSFSGVPSRFSGSGSGTDFTLTINSLEAEDAATYFCHQSYNLPRTFGGGTKVEIKR
IC50, HCVpp neutralization [2]: 4.31 µg/mL
IC90, HCVpp neutralization [2]: > 50 µg/mL
IC50, HCVpp neutralization [3]: 27.5 µg/mL
IC90, HCVpp neutralization [3]: > 50 µg/mL
IC50, HCVpp neutralization [4]: > 50 µg/mL
IC90, HCVpp neutralization [4]: > 50 µg/mL
IC50, HCVpp neutralization [5]: > 50 µg/mL
IC90, HCVpp neutralization [5]: > 50 µg/mL
IC50, HCVpp neutralization [6]: > 50 µg/mL
IC90, HCVpp neutralization [6]: > 50 µg/mL
Kd [25]: 0.3 nM
Kd [26]: 0.2 nM

B3: AT12-009 (antibody, V domains shown)
VH: SSVRVSCKASGDTFKTHAISWVRQAPGQGLEWVGGTVRQAPGDGLELLGGFVPILAPANDAQKFQGRVTITADGSTGPVYMDLSTLTSEDTAMYYCVTSLSEPIPRSCRGGRCYSGPFDAFGVWGQGTMVTVSS
VL: ETMLTQSPVTLSVSPGERATLSCRASQSIGTNLAWYQQKPGQAPRLLIHGASTRATGVPVSFSGSGSGTEFTLTISSLQSEDFAVYYCQQYNNWPLTFGGGTKVDFKR
IC50, HCVpp neutralization [2]: 0.001 µg/mL
IC90, HCVpp neutralization [2]: 0.13 µg/mL
IC50, HCVpp neutralization [3]: 0.06 µg/mL
IC90, HCVpp neutralization [3]: 6.17 µg/mL
IC50, HCVpp neutralization [4]: 0.14 µg/mL
IC90, HCVpp neutralization [4]: 5.34 µg/mL
IC50, HCVpp neutralization [5]: 0.19 µg/mL
IC90, HCVpp neutralization [5]: 14.1 µg/mL
IC50, HCVpp neutralization [6]: 0.72 µg/mL
IC90, HCVpp neutralization [6]: 47.4 µg/mL
Kd [26]: 2.3 nM
koff [26]: 0.0002 s⁻¹
IC50 (read off the curve) [27]: ~2 µg/mL
